Test results reported in patent publication US20220275390A1, “RUBISCO-BINDING PROTEIN MOTIFS AND USES THEREOF” (The Trustees of Princeton University, priority 2019, published 2022).

B1: D23A: C. reinhardtii Rubisco SSU with mutation D23A (protein)
chain: MMVWTPVNNKMFETFSYLPPLTAEQIAAQVDYIVANGWIPCLEFAEADKAYVSNESAIRFGSVSCLYYDNRYWTMWKLPMFGCRDPMQVLREIVACTKAFPDAYVRLVAFDNQKQVQIMGFLVQRPKTARDFQPANKRSV
modifications: left off: small tags and cut ends
B2: M87D: C. reinhardtii Rubisco SSU with mutation M87D (protein, UniProt P00873 46-185, looked up, variant M87D)
Ribulose bisphosphate …: MMVWTPVNNKMFETFSYLPPLTDEQIAAQVDYIVANGWIPCLEFAEADKAYVSNESAIRFGSVSCLYYDNRYWTMWKLPMFGCRDPDQVLREIVACTKAFPDAYVRLVAFDNQKQVQIMGFLVQRPKTARDFQPANKRSV
B3: R91A: C. reinhardtii Rubisco SSU with mutation R91A (protein, UniProt P00873 46-185, looked up, variant R91A)
Ribulose bisphosphate …: MMVWTPVNNKMFETFSYLPPLTDEQIAAQVDYIVANGWIPCLEFAEADKAYVSNESAIRFGSVSCLYYDNRYWTMWKLPMFGCRDPMQVLAEIVACTKAFPDAYVRLVAFDNQKQVQIMGFLVQRPKTARDFQPANKRSV
B4: E24A: C. reinhardtii Rubisco SSU with mutation E24A (protein, UniProt P00873 46-185, looked up, variant E24A)
Ribulose bisphosphate …: MMVWTPVNNKMFETFSYLPPLTDAQIAAQVDYIVANGWIPCLEFAEADKAYVSNESAIRFGSVSCLYYDNRYWTMWKLPMFGCRDPMQVLREIVACTKAFPDAYVRLVAFDNQKQVQIMGFLVQRPKTARDFQPANKRSV
B5: V94D: C. reinhardtii Rubisco SSU with mutation V94D (protein, UniProt P00873 46-185, looked up, variant V94D)
Ribulose bisphosphate …: MMVWTPVNNKMFETFSYLPPLTDEQIAAQVDYIVANGWIPCLEFAEADKAYVSNESAIRFGSVSCLYYDNRYWTMWKLPMFGCRDPMQVLREIDACTKAFPDAYVRLVAFDNQKQVQIMGFLVQRPKTARDFQPANKRSV
B6: RBM P1-Venus: Rubisco-Binding Membrane Protein 1 (SEQ ID NO: 1) fused to the Venus fluorescent protein (protein)
chain: MQCQLKHGARPQSQRPNWLPARAATLRPAVQHGVRRGLTLGVKAAAAPLEDKKMPADMTTRQYRRVVYDFALWAKHRDVNRYLYNLRTIPGSRIIRQLSQPMGVVLAWAALFGFYETCLEAGVLPSYLPKMTLMSAEPQGLTSFALSLLLVFRTNSSYGRFDEARKIWGGILNRARNIANQAVTFIPAEDQAGREAVGKWTVGFTRALQAHLQEDIDLRKELEKATPRWSKEEIDMLVNAQHRPIKAISVLSELTRQLSITQFQALQMQENCTFFYDALGGCERLLRTPIPVSYTRHTARFLTIWLAMLPLGLWERYHWSMLPVIALIGFLLLGIDEIGISIEEPFGILPLDAICGRAQTDVNSLLKEDPAVMKYVDDVRSGRVKSPPPLPPAPAAPAAAAAAAAAAARSVSPQPDVAKTLGSLFTNVRAGVGAVAPGAPLMPQAPVRSPSPTRSVSPSFPRASAGTGMPPPVGMNGATPRVAAAPPTPPPVSRPAAPAAAPAAGSGFTMPNFSASLSGLTGGAAAAAKSAADAASSKLTKMADSMSSGAAAPAPPAAPARPSTSPRPSASSPISSSADADRSDSSRRPVNWRDELQSLKATREPNGNGNGSGVAPAAGRADADEEALRRFGNLAGRSRSGNGGGGSSDTELSEANRPRTRPDWRNQL

Experiments:
EPYC1 = experiment: Yeast two-hybrid assay of EPYC1 with Rubisco SSU variants; type: cell-based, Chlamydomonas reinhardtii; conditions: growth on SD-L-W-H with 3-AT, three days, FIGS. 9A-9C
Source text: FIGS. 9A-9C show the results of a yeast two-hybrid (Y2H) assay to measure the interaction between EPYC1 and Rubisco SSU variants. […] The images shown were taken following three days of cell growth. The Rubisco SSU residues that form salt bridges with EPYC1 residues are bolded (D23, E24, and R91) and the residues that form the hydrophobic pocket with EPYC1 residues are bolded and italicized (M87 and V94). The “Control” images were taken from cells grown for three days on SD-L-W media and the “Test” images were taken from cells grown for three days on SD-L-W-H with 3-AT. Growth of yeast cells expressing the indicated EPYC1 and Rubisco SSU variants was measured after three days on SD-L-W-H with varying 3-AT concentrations. The highest concentration of 3-AT (0, 1, 2.5, 5, 10, and 20 mM) permissive for the growth of each EPYC1 and Rubisco SSU variant combination is shown, as indicated in the “Key” on the right.
Mutagenesis of EPYC1, Mutagenesis of Rubisco, Yeast Two-hybrid, Peptide Arrays and SPR Assays To determine the importance of individual EPYC1 residues for binding to Rubisco, the impact on Rubisco binding of every possible single amino acid substitution for EPYC1 RBM 2 was determined (FIG. 8). To determine the importance of individual Rubisco residues for binding to EPYC1, targeted mutations of the amino acids identified from atomic modeling were tested in a yeast two-hybrid assay as in van Nues and Beggs (Genetics 157: 1451-1467, 2000). Peptide arrays and SPR assays were performed as in Example 1.

C. reinhardtii cells = experiment: Confocal fluorescence microscopy localization of Venus fusion proteins; type: cell-based, Chlamydomonas reinhardtii; conditions: Venus fluorescence in C. reinhardtii cells
Source text: A synthetic […] (Invitrogen) containing a 643 bp restriction fragment containing the C-terminus of Venus, followed by the sequence coding for the FLAG-tag sequence, and a sequence coding for three repetitions of the 15 C-terminal amino acids of SAGA2, was cloned into pLM005-FDX1, after restriction digestion with EcoRl and PfIMI. GenBank accession number of the empty pLM005 is KX077945.1. The plasmid pLM005-FDX1 is identical to pLM005 with the genomic sequence of FDX1 cloned in frame by Gibson Assembly (Mackinder et al., PNAS 113: 5958-5963, 2015) between residues 2698 and 3234. The terminal 85 amino acids of resultant mature fusion protein, immediately downstream of the FLAG-tag, were a 5 aa linker (GGGGS; SEQ ID NO: 87), a first copy of SAGA2 15 C-terminal aa, followed by a 10 aa linker (2X GGGGS; SEQ ID NO: 88), a second copy of SAGA2 15 last aa, another 10 aa linker (2X GGGGS; SEQ ID NO: 88), and finally a third copy of SAGA2 15 last aa. The sequence of the EcoRI-PfIMI digestion fragment (SEQ ID NO: 89) was cloned in frame into pLM005-FDX1.
Culturing and Transformation of C. reinhardtii: Culturing and transformation of C. reinhardtii for fluorescence localization of protein and imaging was performed as described in Mackinder et al. (PNAS 113: 5958-5963, 2015). […]

Molecule	Rubisco SSU-EPYC1 interaction (EPYC1)	localization pattern within the pyrenoid (C. reinhardtii cells; FIG. 15)	localization (C. reinhardtii cells; FIGS. 14B and 15)
B1	severe impact		
B2	severe impact		
B3	moderate defect		
B4	moderate defect		
B5	severe impact		
B6		limited to an inner sphere of the Rubisco matrix	localized to the pyrenoid
